Key:
IL-25 = IL-25 expression in lung fibroblasts, 4T1 tumor resection model (IF staining, flow cytometry); format: in vivo, mice
Method: BALB/c mice were subcutaneously injected with 4T1-Luc2 cells (5×10^5/100 μl PBS/mouse) into the fourth mammary fat pad under isoflurane anesthesia. Tumor growth was monitored by measuring the tumor volume according to the formula: volume=length×(width)^2/2. After tumors were established (180-200 mm^3) on day 14, test mice were divided into different groups (8 mice/group) and subjected to different treatments. At 15 days post tumor cell implantation, primary 4T1 tumors in situ were surgically removed by a tumor resection process. For drug treatment, mice were administered with different agents, including vehicle-control (PBS), mouse IL-25 protein (10 μg/kg, ProSpec, Vineland, N.J.), Q2-3 (2, 20 or 100 μg/kg) or docetaxel (2 mg/kg; Sigma-Aldrich), by intravenous injection for 3 weeks (3 injections/week) post tumor resection. For in vivo neutralization of mouse IL-25 activity, mice were treated intraperitoneally with either 100 μg anti-mouse IL-25 (IL-17E) antibody (clone 35B; Biolegend) or isotype control rat IgG (100 μg; rat, IgG1κ; Biolegend) at days 0, 3, 6, 9, 12, 15, 18 post tumor resection. To detect metastasis of human MDA-MD-231-Luc2 tumor cells, nude mice were injected subcutaneously with 5×10^5 MDA-MD-231-Luc2 cells into the mammary fat pad under isoflurane anesthesia. After tumors were established (250-350 mm^3) on day 24, test mice were divided into different groups (8 mice/group) and subjected to different treatments. At 25 days post tumor cell implantation, primary MDA-MD-231-Luc2 tumors in situ were surgically removed by a tumor resection process. For drug treatment, mice were administered with PBS (vehicle-control), Q2-3 (100 μg/kg), docetaxel (5 mg/kg) or Q2-3 (100 μg/kg)+docetaxel (5 mg/kg), by intravenous injection for 3 weeks (3 injections/week) post tumor resection. To monitor the progression of mouse (4T1) or human (MDA-MD-231) metastatic tumors, test mice treated with different drugs/agents were compared for their tumor metastatic activity and survival rate aftern another 8 weeks. Bioluminescence signals from the 4T1-luc2 tumor cells in test mice were analyzed using a non-invasive IVIS imaging system (Calipers, Hopkinton, Mass.) after intraperitoneal injection of 150 mg/kg D-luciferin (NanoLight technology, Pinetop, Ariz.).
Lung tissue specimens obtained from each tumor-resected mouse were fixed with 4% formalin and embedded in paraffin. For histological comparison, 6 μm-thick tissue sections were made and stained with hematoxylin and eosin (H&E). For immunofluorescence staining, fixed tissue sections were initially immersed in boiling sodium citrate buffer (0.01 M sodium citrate buffer, pH 6.0) for 30 min Lung tissue sections were blocked with 5% nonfat milk, and incubated with anti-FSP-1 antibody (1:200 dilution; Millipore), FITC-conjugated anti-CD206 antibody (1:200 dilution; Biolegend) or PE-conjugated anti-IL-25 antibody (1:100; R&D) in 1% nonfat milk for 1 hour at room temperature. Sections were then washed with PBS containing 0.1% Tween 20. To detect primary antibodies, some sections were incubated with FITC-conjugated anti-mouse-IgG (1:200; Jackson Immunoresearch, West Grove, Pa.) for FSP-1. 4′,6-Diamidino-2-phenylindole dihydrochloride (1 μg/ml; Sigma-Aldrich) was used to stain the nuclei. Fluorescence microscopy evaluation of immunostained tissue sections was performed using a Zeiss Axiovert 200 M microscope (Carl Zeiss, Heidelberg, Germany) Images were captured with a digital camera (Orca ER, Hamamatsu) and processed using Axiovision 4.6.3 (Carl Zeiss).
For detection of myeloid derived suppressor cells (MDSCs), cells from mouse lung tissue in each group were collected and stained for 30 min at 4° C. with antibodies against specific cell markers, including FITC-conjugated anti-mouse CD11b (for cell surface), APC-Cy7 conjugated anti-mouse Ly-6C and PE conjugated anti-mouse Ly-6G, (both for intracellular staining). All three antibodies were obtained from Biolegend, (San Diego, Calif.). […]

4T1 cells = test: MTT growth activity of 4T1 cells in fibroblast conditioned media; format: cell-based, mouse; conditions: MTT at 5 days; media applied every 24 hours; IL-25 protein 100 ng/ml
Method: (§1) M10, WI38, SKBR3, and MDA-MB-231 cells (1×10^5 cells/ml) dispensed in 96-well plates were incubated with vehicle or test compounds (Q2-3) for 24 h or 72 h in corresponding basal medium in a 5% CO2 incubator. To evaluate the effect of secreted IL-25 from Q2-3-treated fibroblasts on growth activity of mammary tumor cells, 4T1 and MDA-MB-231 cells (1×10^4 cells/ml) dispensed in 96-well plates were incubated with control medium or different fibroblast conditioned media (200 μl/ml) which was changed daily for 5 days. All treatments were performed in triplicate cell cultures. The growth activity of cells was assayed using a 3-(4, 5-dimethythiazol-2-yl)-2, 5-diphenyl tetrazolium bromide (MTT; Sigma-Aldrich) colorimetric method. The absorbance at 570 nm (A570) was measured using a multiwall scanning spectrophotometer.
(§2) To pull down and deplete IL-25 protein molecules in 3T3 or MDA-MB-231 cell conditioned media, the Dynabeads antibody coupling kit (Life Technology; 14311D) was used according to the manufacturer's recommendations, yielding 10 mg/ml anti-IL25 antibody (ProteinTech, Chicago, Ill.)-coupled beads. The rabbit IgG (ProteinTech, Chicago, Ill.) was used as an isotype control antibody. […] The antibody-pulled down proteins from 3T3-CM, NHDF-CM or WI38-CM, were detected for the content of secreted IL-25 protein in each conditioned medium using western blot analysis. […]

MDA-MB-231 cells = test: MTT growth activity of MDA-MB-231 cells in fibroblast conditioned media; format: cell-based, human; conditions: MTT at 5 days; media applied every 24 hours; IL-25 protein 100 ng/ml
Method: as §1, §2

caspases 8 and 3 = test: Western blot of cleavage of caspases 8 and 3 in MDA-MB-231 cells; format: cell-based, human
Method: MDA-MB231 and MCF-7 cells were seeded in 6-well plate at 10^5 cells/well for 24 h before transfection. siRNAs used for knockdown of human IL-25 receptor (IL25-RB) were purchased from Biotools (Taiwan, ROC) as follows: IL-17RB-homo-448 (IL-25R-1 siRNA); IL-17RB-homo-519 ([…]); IL-17RB-homo-956 ([…]); negative control (Neg). At the beginning of transfection, each test IL25R siRNA oligomers (100 pmol) was diluted in 250 μl Opti-MEM I Reduced Serum Medium. Aliquots of 5 μl Lipofectamine 2000 transfection reagent (Invitrogen) were diluted with 250 μl Opti-MEM I Reduced Serum Medium. Diluted oligomers were mixed gently with the diluted Lipofectamine 2000 and incubated for 20 min at room temperature. The oligomer-Lipofectamine 2000 complexes were subsequently added to each well containing cells and medium. Cells were incubated at 37° C. for 72 h until test cells were ready to be treated with IL25 cytokine or a different CM.
Cell lysates of 3T3, WI38, NHDF, MDA-MB-231, MCF-10A and MCF-7 or the IL-25-pulled down protein lysates from 3T3, WI38 or NHDF conditioned media were resolved by SDS PAGE using 8, 10 or 15% stepwise gels. […] Loading of equal amounts of protein was assessed using the mouse β-actin protein as a reference. […] Quantification of protein in luminescent bands was performed using ImageJ software. […]

Molecule	total FSP-1+ER-TR7+ fibroblast population in lung (IL-25; 3 weeks post tumor resection, PBS control 5.2%)	cell population of IL-25+ fibroblasts (FSP-1+ER-TR7+IL-25+ cells) in lung (IL-25; 3 weeks post tumor resection, PBS control 16.7%)	IL-25 expression in lung fibroblasts (IF staining) (IL-25; Q2-3 100 μg/kg, 21 days post tumor resection)	growth activity of 4T1 cells (4T1 cells)	growth activity of MDA-MB-231 cells (MDA-MB-231 cells)	cleavage of caspases 8 and 3 (caspases 8 and 3; MDA-MB-231, IL-25 100 ng/ml, 24 h)	cleavage of caspases 8 and 3 in cells treated with IL-25R siRNA (caspases 8 and 3; MDA-MB-231 treated with IL-25R siRNA)
CC(=O)O[C@@]12CO[C@@H]1C[C@H](O)[C@@]1(C)C(=O)[C@H](O)C3=C(C)[C@@H](OC(=O)[C@H](O)[C@@H](NC(=O)OC(C)(C)C)c4ccccc4)C[C@@](O)([C@@H](OC(=O)c4ccccc4)[C@H]21)C3(C)C [DT, docetaxel, reference compound]	did not increase	did not increase	little or no IL-25 expression	–	–	–	–
IL-25: human and mouse IL-25 recombinant protein (protein, UniProt Q9H293 33-177, looked up, also mouse IL-25, human and mouse IL-25 recombinant protein) Interleukin-25: YSHWPSCCPSKGQDTSEELLRWSTVPVPPLEPARPNRHPESCRASEDGPLNSRAISPWRYELDRDLNRLPQDLYHARCLCPHCVSLQTGSHMDPRGNSELLYHNQTVFYRRPCHGEKGTHKGYCLERRLYRVSLACVCVRPRVMG	–	–	–	decreased the growth activity	decreased the growth activity	resulted in the cleavage of caspases 8 and 3	not able to induce

Reference: patent publication US11207289B2, “Use of benzofuran lignans to induce IL-25 expression and suppress mammary tumor metastasis” (ACADEMIA SINICA, priority 2016, dated 2021)
